Experimental findings from patent US20040018972A1 (TRILLIUM THERAPEUTICS, published 2004) are described below.

The target in test [1] is T1, CD80 (B7-1) on mouse dendritic cells (mouse, UniProt Q00609 38-306).
T1 construct: whole, on cells
T1 sequence (looked up): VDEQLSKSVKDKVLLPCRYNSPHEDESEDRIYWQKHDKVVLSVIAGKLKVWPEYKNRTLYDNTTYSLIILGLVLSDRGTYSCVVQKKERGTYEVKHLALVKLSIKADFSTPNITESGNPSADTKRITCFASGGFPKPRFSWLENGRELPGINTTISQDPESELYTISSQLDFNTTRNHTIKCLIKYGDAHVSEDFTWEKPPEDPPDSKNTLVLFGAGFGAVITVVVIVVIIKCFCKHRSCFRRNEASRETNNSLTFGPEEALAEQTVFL
Kind of test: co-capping: DC pre-incubated with SH1.2.47 and anti-rat Ig at 37 C, then FACS staining of the other surface molecules. As to the method: (§1) FIG. 3 is FACS analysis of the effect of pretreatment of DC with anti-MD-1 antibody on cell surface expression of molecules on dendritic cells. Cells in the columns shown were preincubated (60 minutes at 4° C.) in medium, rat anti-DC26, or anti-MD-1 (SH1.2.47), prior to washing and incubation at 37° C. with anti-rat Ig. Thereafter cells were stained with different mAbs as in FIG. 2.

Test [2] deals with T2, CD86 (B7-2) on mouse dendritic cells (mouse, UniProt P42082 24-309).
T2 construct: whole, on cells
T2 sequence (looked up): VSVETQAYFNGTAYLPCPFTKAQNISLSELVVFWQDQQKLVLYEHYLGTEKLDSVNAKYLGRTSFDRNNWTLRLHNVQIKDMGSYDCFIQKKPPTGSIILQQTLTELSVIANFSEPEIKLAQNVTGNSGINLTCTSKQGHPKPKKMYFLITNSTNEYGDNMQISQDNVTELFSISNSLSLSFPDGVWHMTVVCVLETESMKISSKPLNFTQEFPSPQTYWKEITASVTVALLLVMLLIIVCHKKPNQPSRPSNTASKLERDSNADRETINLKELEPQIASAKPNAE
The description is as above. As for the experimental part:
as §1

Test [3] concerns the target T3, DEC205 on mouse dendritic cells (mouse, UniProt Q60767 28-1723).
T3 construct: whole, on cells
Described as above. As for the experimental part: as §1

Test [4] has as its target T4, OX-2 (CD200) on mouse dendritic cells (mouse, UniProt O54901 31-278).
T4 construct: whole, on cells
T4 sequence (looked up): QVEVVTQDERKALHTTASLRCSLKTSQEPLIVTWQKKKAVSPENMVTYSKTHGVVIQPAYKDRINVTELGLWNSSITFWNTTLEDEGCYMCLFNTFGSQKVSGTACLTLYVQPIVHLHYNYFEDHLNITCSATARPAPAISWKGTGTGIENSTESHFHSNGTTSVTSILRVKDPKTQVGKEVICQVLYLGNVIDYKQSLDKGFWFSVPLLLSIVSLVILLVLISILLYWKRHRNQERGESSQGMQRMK
The test is described as above. As for the experimental part: as §1

Test [5] addresses T5, CD14 on mouse dendritic cells (mouse, UniProt P10810 16-336).
T5 construct: whole, on cells
T5 sequence (looked up): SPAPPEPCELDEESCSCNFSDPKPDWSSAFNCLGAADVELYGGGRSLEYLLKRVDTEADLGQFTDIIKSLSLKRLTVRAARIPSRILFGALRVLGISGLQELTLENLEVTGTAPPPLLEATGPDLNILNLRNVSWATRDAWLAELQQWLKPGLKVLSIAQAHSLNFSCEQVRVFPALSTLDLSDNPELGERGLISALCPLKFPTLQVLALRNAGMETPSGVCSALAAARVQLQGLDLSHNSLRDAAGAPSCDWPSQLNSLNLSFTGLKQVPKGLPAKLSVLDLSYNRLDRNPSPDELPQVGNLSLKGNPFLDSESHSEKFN
Kind of test: co-capping on DC: anti-CD14 staining reduced after capping of MD-1 with SH1.2.47 (FACS). As to the method:
as §1

T3 sequence (Q60767 28-1723): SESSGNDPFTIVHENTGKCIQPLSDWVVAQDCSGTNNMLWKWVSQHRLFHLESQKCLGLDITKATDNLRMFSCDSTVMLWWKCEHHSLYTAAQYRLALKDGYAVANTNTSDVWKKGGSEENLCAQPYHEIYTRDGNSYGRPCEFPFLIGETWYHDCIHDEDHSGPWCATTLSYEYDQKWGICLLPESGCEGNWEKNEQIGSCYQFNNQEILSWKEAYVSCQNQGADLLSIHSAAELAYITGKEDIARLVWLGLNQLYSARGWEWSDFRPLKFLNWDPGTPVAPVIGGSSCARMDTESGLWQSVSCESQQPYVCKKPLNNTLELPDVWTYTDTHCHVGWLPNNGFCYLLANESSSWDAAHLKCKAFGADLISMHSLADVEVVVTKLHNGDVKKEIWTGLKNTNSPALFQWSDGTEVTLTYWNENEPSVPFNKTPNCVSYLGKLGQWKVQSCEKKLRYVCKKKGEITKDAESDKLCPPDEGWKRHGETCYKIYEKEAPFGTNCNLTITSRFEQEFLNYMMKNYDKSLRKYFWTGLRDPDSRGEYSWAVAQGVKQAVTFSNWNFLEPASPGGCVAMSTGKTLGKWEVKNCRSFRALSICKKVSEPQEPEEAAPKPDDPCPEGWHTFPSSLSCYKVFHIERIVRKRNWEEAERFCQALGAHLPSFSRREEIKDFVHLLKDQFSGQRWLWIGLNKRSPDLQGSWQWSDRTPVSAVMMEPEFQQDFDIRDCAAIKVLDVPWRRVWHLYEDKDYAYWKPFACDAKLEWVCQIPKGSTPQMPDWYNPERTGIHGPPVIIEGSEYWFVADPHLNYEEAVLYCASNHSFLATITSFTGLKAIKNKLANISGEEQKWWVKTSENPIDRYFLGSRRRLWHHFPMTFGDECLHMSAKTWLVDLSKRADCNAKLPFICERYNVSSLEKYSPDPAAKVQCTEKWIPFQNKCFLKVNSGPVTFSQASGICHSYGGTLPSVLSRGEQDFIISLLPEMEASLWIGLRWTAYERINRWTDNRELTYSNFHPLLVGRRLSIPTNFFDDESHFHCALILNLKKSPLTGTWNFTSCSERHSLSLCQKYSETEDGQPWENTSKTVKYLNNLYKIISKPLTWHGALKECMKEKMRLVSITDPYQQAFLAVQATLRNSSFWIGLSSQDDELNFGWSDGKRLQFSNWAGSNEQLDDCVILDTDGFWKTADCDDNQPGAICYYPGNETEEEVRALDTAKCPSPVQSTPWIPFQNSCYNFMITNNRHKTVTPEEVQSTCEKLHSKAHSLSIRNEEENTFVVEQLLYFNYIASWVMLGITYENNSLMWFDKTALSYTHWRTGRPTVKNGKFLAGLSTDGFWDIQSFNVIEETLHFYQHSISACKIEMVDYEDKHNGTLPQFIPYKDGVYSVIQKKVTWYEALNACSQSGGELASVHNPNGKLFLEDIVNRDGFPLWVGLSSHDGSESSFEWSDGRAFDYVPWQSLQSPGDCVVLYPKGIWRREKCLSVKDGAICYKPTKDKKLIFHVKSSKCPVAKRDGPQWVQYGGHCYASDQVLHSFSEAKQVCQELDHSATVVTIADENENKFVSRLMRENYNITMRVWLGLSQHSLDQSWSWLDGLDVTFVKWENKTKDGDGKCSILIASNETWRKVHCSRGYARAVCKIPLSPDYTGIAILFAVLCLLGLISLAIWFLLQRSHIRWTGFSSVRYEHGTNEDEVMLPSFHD

B1: murine MD-1 (other, UniProt O88188 20-162, looked up)
chain: DHGSENGWPKHTACNSGGLEVVYQSCDPLQDFGLSIDQCSKQIQSNLNIRFGIILRQDIRKLFLDITLMAKGSSILNYSYPLCEEDQPKFSFCGRRKGEQIYYAGPVNNPGLDVPQGEYQLLLELYNENRATVACANATVTSS
notes: whole, on cells; also called mouse MD-1
B1: the binding result is “no binding” in test [1]; “no binding” in test [2]; “no binding” in test [3]; “no binding” in test [4]; “binds” in test [5].
